{
  "source": "patent US20040053347A1",
  "target": "BRCA2 protein, endogenous in cell extracts (human) (UniProt P51587)",
  "sequence (P51587 whole entry)": "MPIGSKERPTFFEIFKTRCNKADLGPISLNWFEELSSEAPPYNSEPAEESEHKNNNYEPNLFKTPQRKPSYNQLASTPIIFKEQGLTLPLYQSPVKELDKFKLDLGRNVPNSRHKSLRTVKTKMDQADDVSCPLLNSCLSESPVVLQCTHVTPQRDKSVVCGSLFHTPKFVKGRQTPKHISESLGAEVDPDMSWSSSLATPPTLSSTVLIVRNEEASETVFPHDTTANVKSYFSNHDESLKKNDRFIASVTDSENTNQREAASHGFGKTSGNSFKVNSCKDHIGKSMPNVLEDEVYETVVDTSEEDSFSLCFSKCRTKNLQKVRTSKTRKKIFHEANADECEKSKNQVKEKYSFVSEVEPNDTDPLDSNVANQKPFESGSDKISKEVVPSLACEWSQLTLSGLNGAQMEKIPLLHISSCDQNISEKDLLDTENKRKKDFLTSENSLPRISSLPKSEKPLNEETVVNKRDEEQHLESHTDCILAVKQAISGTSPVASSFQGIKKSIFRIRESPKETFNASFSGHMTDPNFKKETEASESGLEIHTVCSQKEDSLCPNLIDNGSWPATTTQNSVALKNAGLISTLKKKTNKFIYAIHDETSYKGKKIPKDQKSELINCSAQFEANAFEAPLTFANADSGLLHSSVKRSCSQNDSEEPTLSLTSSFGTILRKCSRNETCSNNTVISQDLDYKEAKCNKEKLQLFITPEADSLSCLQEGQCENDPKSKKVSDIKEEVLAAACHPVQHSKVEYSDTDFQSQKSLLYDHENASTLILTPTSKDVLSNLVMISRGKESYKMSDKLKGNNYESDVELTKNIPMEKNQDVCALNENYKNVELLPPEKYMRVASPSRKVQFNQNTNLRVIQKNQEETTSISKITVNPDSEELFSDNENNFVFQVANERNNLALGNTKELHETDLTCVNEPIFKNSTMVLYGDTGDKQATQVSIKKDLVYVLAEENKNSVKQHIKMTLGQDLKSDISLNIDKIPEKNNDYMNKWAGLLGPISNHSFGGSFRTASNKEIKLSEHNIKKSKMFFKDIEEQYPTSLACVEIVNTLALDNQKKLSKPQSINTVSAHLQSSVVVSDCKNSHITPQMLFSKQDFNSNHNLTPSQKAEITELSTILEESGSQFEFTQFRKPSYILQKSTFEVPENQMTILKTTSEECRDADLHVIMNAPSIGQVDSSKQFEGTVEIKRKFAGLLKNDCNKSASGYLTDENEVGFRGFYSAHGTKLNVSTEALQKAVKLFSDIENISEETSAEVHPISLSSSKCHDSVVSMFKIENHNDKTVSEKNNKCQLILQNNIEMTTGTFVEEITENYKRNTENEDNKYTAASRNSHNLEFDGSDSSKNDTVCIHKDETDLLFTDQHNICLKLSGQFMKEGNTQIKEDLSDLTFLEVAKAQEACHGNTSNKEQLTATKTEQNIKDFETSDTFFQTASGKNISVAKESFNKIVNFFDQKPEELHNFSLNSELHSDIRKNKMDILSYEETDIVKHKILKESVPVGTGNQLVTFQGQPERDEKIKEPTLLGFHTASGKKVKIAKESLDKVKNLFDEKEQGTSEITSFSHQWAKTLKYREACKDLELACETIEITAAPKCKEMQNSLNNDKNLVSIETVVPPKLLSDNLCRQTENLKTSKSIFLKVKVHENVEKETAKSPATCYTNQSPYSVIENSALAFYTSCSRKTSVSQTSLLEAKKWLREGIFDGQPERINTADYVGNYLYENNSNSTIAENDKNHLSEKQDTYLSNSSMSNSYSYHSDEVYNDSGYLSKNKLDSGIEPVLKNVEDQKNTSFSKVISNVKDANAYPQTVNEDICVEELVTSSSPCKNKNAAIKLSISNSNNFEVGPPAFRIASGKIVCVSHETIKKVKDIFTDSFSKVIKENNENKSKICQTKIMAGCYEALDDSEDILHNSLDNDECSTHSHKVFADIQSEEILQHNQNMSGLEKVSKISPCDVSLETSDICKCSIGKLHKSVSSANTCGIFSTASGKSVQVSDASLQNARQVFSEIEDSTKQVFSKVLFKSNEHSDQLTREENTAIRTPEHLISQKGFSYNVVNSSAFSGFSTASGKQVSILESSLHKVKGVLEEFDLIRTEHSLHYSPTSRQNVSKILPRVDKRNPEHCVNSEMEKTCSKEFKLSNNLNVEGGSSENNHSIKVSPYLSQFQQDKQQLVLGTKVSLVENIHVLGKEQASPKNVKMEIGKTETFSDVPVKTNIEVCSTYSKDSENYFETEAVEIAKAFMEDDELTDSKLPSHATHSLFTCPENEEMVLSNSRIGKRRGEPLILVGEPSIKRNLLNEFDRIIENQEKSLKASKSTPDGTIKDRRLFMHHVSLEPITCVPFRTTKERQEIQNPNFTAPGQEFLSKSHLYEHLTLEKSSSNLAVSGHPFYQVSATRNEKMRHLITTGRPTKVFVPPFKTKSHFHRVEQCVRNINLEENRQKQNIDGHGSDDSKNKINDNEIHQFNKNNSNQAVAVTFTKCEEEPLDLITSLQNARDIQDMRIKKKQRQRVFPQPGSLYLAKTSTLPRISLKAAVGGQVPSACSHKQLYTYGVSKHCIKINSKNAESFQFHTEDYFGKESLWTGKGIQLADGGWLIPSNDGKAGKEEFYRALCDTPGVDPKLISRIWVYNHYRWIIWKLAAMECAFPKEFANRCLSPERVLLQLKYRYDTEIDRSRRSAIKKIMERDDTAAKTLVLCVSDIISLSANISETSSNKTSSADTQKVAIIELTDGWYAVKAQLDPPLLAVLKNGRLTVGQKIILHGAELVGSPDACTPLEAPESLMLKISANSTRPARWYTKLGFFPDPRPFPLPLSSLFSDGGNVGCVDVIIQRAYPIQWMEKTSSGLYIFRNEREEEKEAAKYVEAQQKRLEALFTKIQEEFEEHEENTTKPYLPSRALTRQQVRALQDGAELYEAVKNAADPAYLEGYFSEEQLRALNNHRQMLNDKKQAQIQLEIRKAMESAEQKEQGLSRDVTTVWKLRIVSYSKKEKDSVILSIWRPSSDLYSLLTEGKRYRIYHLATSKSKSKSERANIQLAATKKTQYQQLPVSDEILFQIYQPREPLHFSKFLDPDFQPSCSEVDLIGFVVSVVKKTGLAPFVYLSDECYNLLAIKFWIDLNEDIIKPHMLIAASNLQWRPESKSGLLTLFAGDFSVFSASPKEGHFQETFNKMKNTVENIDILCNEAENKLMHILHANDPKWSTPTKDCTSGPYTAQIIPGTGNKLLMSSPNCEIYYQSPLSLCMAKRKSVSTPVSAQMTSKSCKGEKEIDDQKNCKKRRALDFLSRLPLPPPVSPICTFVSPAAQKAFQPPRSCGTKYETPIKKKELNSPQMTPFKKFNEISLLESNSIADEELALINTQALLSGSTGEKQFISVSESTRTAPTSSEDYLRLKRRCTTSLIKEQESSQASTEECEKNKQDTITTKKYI",
  "assay": "estimate from co-immunoprecipitation with anti-BRCA2 antibodies",
  "data": [
    {"substance": "BRAF35, endogenous protein in HeLa or MCF7 cell extracts", "values": [
      {"measurement": "percent of endogenous BRAF35 present in the BRCA2 complex", "value": "2 to 4", "unit": "%"}
    ]}
  ]
}
